Measured values reported in patent US6730503B1 (Roche Vitamins Inc., priority 1996, dated 2004).
“And” between values parts separate entries of the source, which are not always exact repeats. Equal values may be shown once. “Also recorded” adds a separate entry of the source.

Experiments:
[1] = Substrate specificity of purified enzymes, PMS-DCIP spectrophotometric assay; type: biochemical; conditions: A′ corrected 1.5-fold (purity about 65%)
Outline: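 Cell-free extract, cytosolic (100,000×g supernatant) and membrane fractions from French-press-disrupted cultures assayed in 1.0 ml containing 100 μM DCIP, 1 mM PMS, 50 mM Tris-malate-NaOH pH 8.0 and substrate. Substrate-dependent decrease in DCIP absorbance at 600 nm followed at 25 °C; one unit reduces 1 μmole DCIP/min (ε 15 mM⁻¹).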

[2] = Optimal pH, PMS-DCIP assay in buffers of various pH; type: biochemical
Outline: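 Activity measured by PMS-DCIP spectrophotometric assay in 50 mM Tris-malate-NaOH (pH 6.0–8.5) or 50 mM glycine-NaOH (pH 9.0, 9.5). DCIP extinction coefficients taken as 10.8 to 15.1 depending on pH.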

[3] = pH stability, 3 hours at 25° C., residual activity by PMS-DCIP assay; type: physicochemical; conditions: relative to no incubation at pH 8.0
[4] = Thermal stability, 5 minutes, residual activity by PMS-DCIP assay; type: physicochemical
Method: Table 4 indicates the results of thermal-stabilities of the enzymes. The enzyme (about 0.05 mg/ml) in 25 mM HEPES buffer, pH 7.5, containing 5% sucrose, 0.2 M NaCl, and 5 mM CaCl2 was incubated at temperature indicated in the table (4-60° C.) for 5 minutes, cooled in ice bath and assayed by PMS-DCIP spectrophotometric method. Remaining activity was expressed as relative activity against that obtained by 4° C. incubation.

[5] = Products of enzyme reactions with purified enzymes, identified by TLC and/or HPLC; type: biochemical

Substrate specificity ([1]; 2 mM L-Sorbosone): 73.6 units/mg of purified protein
Substrate specificity ([1]; 50 mM D-Glucose): 943.9 units/mg of purified protein
Substrate specificity ([1]; 50 mM D-Mannitol): 517.4 units/mg of purified protein
Substrate specificity ([1]; 50 mM Isopropanol): 72.3 units/mg of purified protein
Substrate specificity ([1]; 50 mM n-Propanol): 40.0 units/mg of purified protein
Substrate specificity ([1]; 125 mM D-Fructose): 2.1 units/mg of purified protein
Substrate specificity ([1]; 125 mM D-Sorbitol): 130.9 units/mg of purified protein
Substrate specificity ([1]; 125 mM L-Sorbose): 8.4 units/mg of purified protein
Product ([5]; substrate D-Mannitol): D-Fructose
Product ([5]; substrate D-Sorbitol): L-Sorbose
Product ([5]; substrate Glycerol): Dihydroxyacetone
Product ([5]; substrate L-Idose): L-Idonic acid
Product ([5]; substrate L-Sorbosone): 2KGA
B1: Enzyme B: recombinant AADH of G. oxydans DSM No. 4025, amino acid sequence SEQ ID NO 8, plasmid pSS31/pSSB103R (protein)
chain: MNPTTLLRTSAAVLLLTAPAAFAQVTPITDELLANPPAGEWINYGRNQENYRHSPLTQITADNVGQLQLVWARGMEAGAVQVTPMIHDGVMYLANPGDVIQALDAQTGDLIWEHRRQLPAVATLNAQGDRKRGVALYGTSLYFSSWDNHLIALDMETGQVVFDVERGSGEDGLTSNTTGPIVANGVIVAGSTCQYSPYGCFISGHDSATGEELWRNHFIPQPGEEGDETWGNDFEARWMTGVWGQITYDPVTNLVFYGSTGVGPASETQRGTPGGTLYGTNTRFAVRPDTGEIVWRHQTLPRDNWDQECTFEMMVANVDVQPSAEMEGLRAINPNAATGERRVLTGAPCKTGTMWSFDAASGEFLWARDTNYTNMIASIDETGLVTVNEDAVLKELDVEYDVCPTFLGGRDWSSAALNPDTGIYFLPLNNACYDIMAVDQEFSALDVYNTSATAKLAPGFENMGRIDAIDISTGRTLWSAERPAANYSPVLSTAGGVVFNGGTDRYFRALSQETGETLWQARLATVATGQAISYELDGVQYIAIGAGGLTYGTQLNAPLAEAIDSTSVGNAIYVFALPQ
modifications: Gluconobacter oxydans; SIGNAL (1)..(23)
Relative activity (optimal pH) ([2]; assay pH 6.0, pH 8.0 = 100): 21.0%
Relative activity (optimal pH) ([2]; assay pH 6.5, pH 8.0 = 100): 51.6%
Relative activity (optimal pH) ([2]; assay pH 7.0, pH 8.0 = 100): 61.6%
Relative activity (optimal pH) ([2]; assay pH 7.5, pH 8.0 = 100): 75.3%
Relative activity (optimal pH) ([2]; assay pH 8.0): 100.0%
Relative activity (optimal pH) ([2]; assay pH 8.5, pH 8.0 = 100): 62.2%
Relative activity (optimal pH) ([2]; assay pH 9.0, pH 8.0 = 100): 8.0%
Relative activity (optimal pH) ([2]; assay pH 9.5, pH 8.0 = 100): 0.0%
Relative activity (pH stability) ([3]; incubated at pH 4.0, 3 hours): 25.2%
Relative activity (pH stability) ([3]; incubated at pH 5.0, 3 hours): 56.1%
Relative activity (pH stability) ([3]; incubated at pH 6.0, 3 hours): 100.9%
Relative activity (pH stability) ([3]; incubated at pH 7.0, 3 hours): 101.9%
Relative activity (pH stability) ([3]; incubated at pH 8.0, 3 hours): 114.0%
Relative activity (pH stability) ([3]; incubated at pH 9.0, 3 hours): 101.9%
Relative activity (pH stability) ([3]; incubated at pH 10.0, 3 hours): 85.5%
Relative activity (pH stability) ([3]; incubated at pH 11.0, 3 hours): 70.1%
Relative activity (thermal stability) ([4]; 4° C. for 5 minutes (reference)): 100.0%
Relative activity (thermal stability) ([4]; 20° C. for 5 minutes, relative to 4° C. incubation): 97.2%
Relative activity (thermal stability) ([4]; 30° C. for 5 minutes, relative to 4° C. incubation): 95.4%
Relative activity (thermal stability) ([4]; 40° C. for 5 minutes, relative to 4° C. incubation): 84.6%
Relative activity (thermal stability) ([4]; 50° C. for 5 minutes, relative to 4° C. incubation): 29.2%
Relative activity (thermal stability) ([4]; 60° C. for 5 minutes, relative to 4° C. incubation): 0.0%
Product ([5]; substrate D-Gluconic acid): 5-keto-D-gluconic acid and 5-Keto-D-gluconic acid
Product ([5]; substrate D-Glucose): D-gluconate; also recorded: D-Gluconic acid
Product ([5]; substrate D-Mannoic acid): 5-keto-D-mannoic acid and 5-Keto-D-mannoic acid
